Data reported in patent publication US7998940B2, “Aptamers to von Willebrand factor and their use as thrombotic disease therapeutics” (Archemix Corp., priority 2004, dated 2011).
Oligonucleotides are written 5' to 3', each unit as a sugar letter and its base; * is a phosphorothioate linkage, no mark a phosphodiester; rarer units and linkages stand in square brackets, end groups in braces. Plain capitals give the bases only. r = 2'-OH (RNA); f = 2'-fluoro

What was measured:
[1] = molecular target: T1, human vWF A1 domain (SEQ ID NO 5) (Homo sapiens, UniProt P04275, T1381A); assay: dot blot KD determination, human vWF A1 domain; settings: for Human vWF A1 domain KD: DNA 1 minimers, competition dot blot, 10 nM protein; for Kd: read-out: human A1 KD, rRfY aptamers, 8 point titration of human vWF A1 domain
T1 sequence (P04275 with tags, fused parts or gaps T1381A): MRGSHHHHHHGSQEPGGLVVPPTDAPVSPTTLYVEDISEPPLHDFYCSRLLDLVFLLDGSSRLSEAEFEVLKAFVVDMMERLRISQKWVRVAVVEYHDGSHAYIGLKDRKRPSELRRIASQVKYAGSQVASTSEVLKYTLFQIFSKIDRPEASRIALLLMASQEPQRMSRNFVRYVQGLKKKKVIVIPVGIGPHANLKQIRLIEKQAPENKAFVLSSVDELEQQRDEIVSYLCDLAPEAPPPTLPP
Experimental: For KD determination, aptamers transcripts were purified on 10% denaturing polyacrylamide gels, 5′ end labeled with γ-^32P ATP.
For KD determination, aptamers were purified on denaturing polyacrylamide gels and 5′-end labeled with γ-^32P ATP. A 6 point protein titration of human vWF A1 domain (SEQ ID NO 5) was used in the dot blot assay (333 nM, 100 nM, 33 nM, 10 nM, 3 nM, 0 nM) in 1×DPBS plus 0.1 mg/mL BSA at room temperature for 30 minutes. KD values were calculated by fitting the equation y=(max/(1+K/protein))+yint using KaleidaGraph (KaleidaGraph v. 3.51, Synergy Software).
KD values were calculated by fitting the equation y=(max/(1+K/protein))+yint using KaleidaGraph (KaleidaGraph v. 3.51, Synergy Software).
All minimer sequences were transcribed, gel-purified on 15% denaturing polyacrylamide gels, 5-^32 end-labeled with γ^32P ATP, and then desalted using two Centri-Spin 10 columns (Princeton Separations Cat. #CS-101, Adelphia, N.J.). For KD determination, minimer transcripts were tested for direct binding to full length human vWF (SEQ ID NO 7), human vWF A1 domain (SEQ ID NO 5), and rabbit vWF A1 domain (SEQ ID NO 6) using an 8 point protein titration from 0-300 nM (3 fold dilutions) in 1× Dulbecco's PBS containing 0.1 mg/mL BSA (in a final volume of 50 uL) for 30 minutes at room temperature and then applied to a nitrocellulose and nylon filter sandwich in a dot blot apparatus (Schleicher and Schuell, Keene, N.H.). KD values were calculated by fitting the equation y=(max/(1+K/protein))+yint using KaleidaGraph (KaleidaGraph v. 3.51, Synergy Software).
All minimer DNA sequences were chemically synthesized, 5-^32P end-labeled with γ-^32P ATP, and then desalted using two Centri-Spin 10 columns (Princeton Separations, Cat. #CS-101, Adelphia, N.J.). […] KD values were calculated by fitting the equation y=(max/(1+K/protein))+yint using KaleidaGraph (KaleidaGraph v. 3.51, Synergy Software).

[2] = molecular target: T1, human vWF A1 domain (SEQ ID NO 5); assay: 3-point dot blot screen, human vWF A1 domain; format: binding; settings: rRfY aptamers; 100 nM human vWF A1 domain; ratio of fraction bound with target to fraction bound without target
Procedure, shortened: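 Values are ratios of aptamer fraction retained on nitrocellulose with 100 nM vWF A1 domain (human or rabbit) versus a no-protein control. Unique clones from rounds 9 and 12 pools were transcribed, desalted and 5'-32P labeled before this three-point dot blot screen.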

[3] = tested on: rabbit vWF A1 domain (SEQ ID NO 6); assay: 3-point dot blot screen, rabbit vWF A1 domain; format: binding; settings: for Screen- Rabbit/No Protein: rRfY aptamers, 100 nM rabbit vWF A1 domain, ratio of fraction bound with target to without; for Screen Rabbit/No Protein: 3-point dot blot screen, 20 nM rabbit vWF A1 domain, ratio of fraction of aptamer bound with target protein to fraction bound without protein
rabbit vWF A1 domain (SEQ ID NO 6), sequence (as listed by the source): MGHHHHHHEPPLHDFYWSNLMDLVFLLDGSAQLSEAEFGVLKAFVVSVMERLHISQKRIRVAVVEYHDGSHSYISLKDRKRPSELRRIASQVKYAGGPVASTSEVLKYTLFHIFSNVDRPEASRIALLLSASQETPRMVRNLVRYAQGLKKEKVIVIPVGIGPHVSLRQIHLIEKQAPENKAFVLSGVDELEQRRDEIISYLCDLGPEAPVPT
Procedure, shortened: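 Rabbit vWF A1 domain binding was screened by dot blot using three conditions: no target protein, human vWF, and rabbit vWF A1 domain at 100 nM (20 nM in the screen run twice). Radiolabeled aptamer bound to nitrocellulose was quantified, and results are expressed as the ratio of bound fraction with protein to bound fraction without protein.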

full length human vWF = assay: 3-point dot blot screen, full length human vWF; format: binding; settings: 20 nM full length human vWF, ratio of fraction of aptamer bound with target protein to fraction bound without protein
Source text: When a significant positive ratio of binding of DNA in the presence of human or rabbit vWF A1 domain versus in the absence of protein was seen, the pools were cloned using the TOPO TA cloning kit (Invitrogen Cat. #45-0641, Carlsbad, Calif.) according to the manufacturer's instructions. Round 7 and 11 pool templates were cloned and sequenced (218 total sequences), producing 146 unique clones within 12 sequence families of which sequences from six families show vWF target binding activity. All unique clones were assayed twice in a 3-point dot blot screen (no protein target control, 20 nM full length human vWF (Calbiochem Cat. #681300, La Jolla, Calif.), or 20 nM rabbit vWF A1 domain. The data is presented in the third and fourth columns of Table 17 below as the ratio of the fraction of the aptamer bound to the nitrocellulose in the presence of the target protein to the fraction of aptamer bound in the absence of the target protein.

[4] = tested on: full length human vWF binding to lyophilized platelets; assay: Full length human von Willebrand Factor platelet binding assay (FACS); format: cell-based; settings: 5 nM full length human vWF, lyophilized platelets, botrocetin; both bounds in nM
Experimental: The amount of vWF bound to fixed platelets can be measured with an antibody to vWF. The fluorescence signal from bound antibody incubated with a fluorescein conjugated secondary antibody is then detected and quantified by flow cytometry. The ability of an aptamer of the invention to block vWF binding to platelets is correlated with a reduction in fluorescence signal.
Aptamer potency to block human vWF binding to lyophilized platelets was assessed by flow cytometric analysis. Titrations of aptamers (0 nM, 0.1 nM to 1000 nM) were pre-incubated briefly with 5 nM of full length human vWF in FACS buffer (PBS plus 0.5% bovine serum albumin) at room temperature in a volume of 50 uL. Another 50 uL containing 5 uL of lyophilized platelets plus 1 uL of 0.1 U/uL of botrocetin in FACS buffer was added to aptamer/vWF. This reaction was allowed to proceed for 15 minutes at 37 degrees C. after which 200 uL of FACS buffer was added. Platelets were collected by a 6 minute spin at 1470 RCF and the supernatant was discarded. The pellets were resuspended in 100 uL of FACS buffer containing a 1:100 dilution of anti-vWF antibody and were incubated at room temperature for 30 minutes. After dilution with 200 uL of FACS buffer, the platelets were spun at 1470 RCF for 6 minutes and the supernatant was discarded. The pellets were resuspended in a 1:100 solution of anti-IgG2a-FITC antibody and were incubated in the dark for 30 minutes at room temperature. The entire 100 uL was diluted into 200 uL of FACS buffer and analyzed immediately by flow cytometric analysis in the FACSCAN. Artifactual data from contaminating debris was eliminated from the analysis by drawing a gate around the population of single and aggregated platelets. Mean fluorescent intensity (“MFI”) readings were quantified for each sample analyzed by flow cytometry. Background MFI was subtracted from all data points. Percent inhibition was reported by calculating the percent value of binding of full length human vWF to platelets in the presence of aptamer at a given concentration relative to binding in the absence of any aptamer (see FIG. 7). IC50 values were determined by fitting the percent inhibition of vWF binding to platelets as a function of aptamer concentration to the equation: % inhibition=% inhibitionmax/(1+IC50/aptamer conc.)

Molecule	Screen Rabbit/No Protein [3]	Screen- Human/No Protein (full length human vWF)	other results
CGATCTGACTAGCGGAATGAGAATGCTGGTGGATCG (DNA, backbone not given here) [SEQ ID NO 206]	–	–	Human vWF A1 domain KD [1]: No binding
GATCTGACTAGCGCAATGAGGATGCdTGATGGATTGCTCAGGTC (GATCTGACTAGCGCAATGAGGATGCDTGATGGATTGCTCAGGTC; DNA, backbone and the base at N not given here) [SEQ ID NO 207]	–	–	Human vWF A1 domain KD [1]: No binding
AMX198.C10: rRfY aptamer clone (nucleic acid) rGrGrArGfCrGfCrAfCfUfCrArGfCfCrAfCfUrGrGfUfCfCfUfUrArGfCfUrArGfUfUrGfUrAfCfUrArGfCrGrAfCrGfCrGfUfUfCrArGrGfUrGrGfUfUfUfCrGrAfCfCfUfCfUfCfUrGfCfUrArGfC	–	–	Screen- Human/No Protein [2]: 1.40; Screen- Rabbit/No Protein [3]: 3.39; Kd [1]: 555 nM
AMX238.E7: DNA SELEX 2 aptamer clone (nucleic acid, DNA, backbone not given here, DNA SELEX 2 aptamer clone) DNA: CTACCTACGATCTGACTAGCGTGCAGTGCCTATTTTAGGCCGTGCGGTGCCTCCGTCACGCTTACTCTCATGTAGTTCC	2.83	3.02	–
AMX238.F2: DNA SELEX 2 aptamer clone (nucleic acid, DNA, backbone not given here, DNA SELEX 2 aptamer clone) DNA: CTACCTACGATCTGACTAGCATGCAGTGCCCATTCTAGGCCGTGCGGTGCCTCCGTCATGCTTACTCTCATGTAGTTCC	2.76	2.84	–
AMX237.C11: DNA SELEX 2 aptamer clone (nucleic acid, DNA, backbone not given here, DNA SELEX 2 aptamer clone) DNA: CTACCTACGATCTGACTAGCGTGCAGTGCCTATTCTAGGCCGTGCGGTGCCTCCGTCATGCTTACTCTCATGTAGTTCC	1.95	2.04	–
AMX238.F3: DNA SELEX 2 aptamer clone (nucleic acid, DNA, backbone not given here, DNA SELEX 2 aptamer clone) DNA: CTACCTACGATCTGACTAGCGTGCAGTGCCTATTTTAGGTCGTGCGGGGCCTCCGTCACGCTTACTCTCATGTAGTTCC	2.72	2.83	–
AMX237.F9: DNA SELEX 2 aptamer clone (nucleic acid, DNA, backbone not given here, DNA SELEX 2 aptamer clone) DNA: CTACCTACGATCTGACTAGCTTGGTAGCGATTCTGTGGAGCTGCGGTTTGGTCGACGTCAGCTTACTCTCATGTAGTTCC	2.31	2.21	–
AMX236.B8: DNA SELEX 2 aptamer clone (nucleic acid, DNA, backbone not given here, DNA SELEX 2 aptamer clone) CTACCTACGATCTGACTAGCTTGGTAGCGACTCTGTGGAGCTGCGGTCTGGTCGACGTCAGCTTACTCTCATGTAGTTCC	1.88	1.66	–
AMX237.C9: DNA SELEX 2 aptamer clone (nucleic acid, DNA, backbone not given here, DNA SELEX 2 aptamer clone) DNA: CTACCTACGATCTGACTAGCTTGGTAGTGACTTTGTGGAGCTGCGGTTTGGTCGACGTCAGCTTACTCTCATGTAGTTCC	2.19	2.05	–
AMX237.F12: DNA SELEX 2 aptamer clone (nucleic acid, DNA, backbone not given here, DNA SELEX 2 aptamer clone) DNA: CTACCTACGATCTGACTAGCTTGGTAGCGATTTTGTGGAGCTGCGGTTTGGTCGACGTCAGCTTACTCTCATGTAGTTCC	2.08	1.95	–
AMX238.G6: DNA SELEX 2 aptamer clone (nucleic acid, DNA, backbone not given here, DNA SELEX 2 aptamer clone) DNA: CTACCTACGATCTGACTAGCTCCAGTGTTTTATCCAATAACCGTGCGGGGCCTCCGTGATGCTTACTCTCATGTAGTTCC	1.22	1.25	–
AMX236.F8: DNA SELEX 2 aptamer clone (nucleic acid, DNA, backbone not given here, DNA SELEX 2 aptamer clone) CTACCTACGATCTGACTAGCTCCAGTGTTTTATCCAATAACCGTGCGGTGCCTCCGTGATGCTTACTCTCATGTAGTTCC	1.13	1.14	–
AMX201.G9: rRfY aptamer clone (nucleic acid) rGrGrArGfCrGfCrAfCfUfCrArGfCfCrAfCfUrArAfCrGrGfCfUrGrAfUfCfUfCrArGrGrAfCfUrArArAfUrArGfUfCrArAfCrArArGrGrAfUrGfCrGfUfUfUfCrGrAfCfCfUfCfUfCfUrGfCfUrArGfC	–	–	Screen- Human/No Protein [2]: 2.06; Screen- Rabbit/No Protein [3]: 2.11; Kd [1]: 182 nM
AMX237.E10: DNA SELEX 2 aptamer clone (nucleic acid, DNA, backbone and methylation of C not given here, DNA SELEX 2 aptamer clone) DNA: CTACCTACGATCTGACTAGCGGAATGAGAATGCTGGTGGATTGCTCAGGTCTGCTGGCTGCTTACTCTCATGTAGTTCC	6.04	1.12	Inhibition of full length hVWF binding in FACS assay, IC50 range [4]: no activity
AMX237.F10: DNA SELEX 2 aptamer clone (nucleic acid, DNA, backbone not given here, DNA SELEX 2 aptamer clone) DNA: CTACCTACGATCTGACTAGCGTGCAGTGCCCATTCCAGGCCGTGCGGTATCCTCCGTCACGCTTACTCTCATGTAGTTCC	2.90	2.90	–
AMX237.C5: DNA SELEX 2 aptamer clone (nucleic acid, DNA, backbone not given here, DNA SELEX 2 aptamer clone) DNA: CTACCTACGATCTGACTAGCGTGCAGTGCCTATCTCAGGCCGTGCGGTATCCTCCGTCACGCTTACTCTCATGTAGTTCC	2.36	2.55	–
AMX236.H2: DNA SELEX 2 aptamer clone (nucleic acid, DNA, backbone not given here, DNA SELEX 2 aptamer clone) CTACCTACGATCTGACTAGCGTGCAGTGCCTATCCCAGGCCGTGCGGTAGCCTCCGTCACGCTTACTCTCATGTAGTTCC	2.06	2.12	–
AMX198.C6: rRfY aptamer clone (nucleic acid) rGrGrArGfCrGfCrAfCfUfCrArGfCfCrAfCrGrGfUrGrGfUfCrArGfUfCrArGfUrGrAfUrAfUrGrAfUfUrArArGfUfUfCrArGfCfUrGfUrGrGfCfUrGfUfUfUfCrGrAfCfCfUfCfUfCfUrGfCfUrArGfC	–	–	Screen- Human/No Protein [2]: 3.03; Screen- Rabbit/No Protein [3]: 4.62; Kd [1]: 249 nM
AMX238.D8: DNA SELEX 2 aptamer clone (nucleic acid, DNA, backbone not given here, DNA SELEX 2 aptamer clone) DNA: CTACCTACGATCTGACTAGCTCCAGTGTTTTATCCAACAACCGTGCGGTGCCTCCGTGAGCTTACTCTCATGTAGTTCC	1.97	2.02	–
